Data on one molecule can be found in paper PMC12269843, “The molecular basis of T cell receptor recognition of citrullinated tenascin-C presented by HLA-DR4” (The Journal of Biological Chemistry, 2025).

Where no end group is shown, it is not given here. [ ]: non-standard residue; d: D form. Cit = NC(=O)NCCC[C@H](N)C(=O)O

What all share (assay): fluorescence polarisation; competition: serial dilution of peptide from 500 μM against 20 nM TAMRA-HA for 100 nM HLA-DRB1 protein with 20 nM HLA-DM; 100 mM trisodium citrate pH 5.4, 50 mM NaCl, 5 mM EDTA; 37 °C, read after 24, 48 and 72 h
For experiment [1], the target named is HLA-DRB1*04:05 protein (human).
Experiment [2] concerns the target HLA-DRB1*01:01 protein (human).
The target in experiment [3] is HLA-DRB1*14:02 protein (human).
The target in experiment [4] is HLA-DRB1*04:01 protein (HLA-DRA*01:01/HLA-DRB1*04:01) (human).
The target of experiment [5] is HLA-DRB1*04:04 protein (human).

Molecule D[Cit]Y[Cit]LNYSLPTG [TNC1014,1016cit peptide] returned a fold weaker affinity against HLA-DRB1*01:01, *04:01 and *14:02 in experiment [1] greater than 4 fold. Also, the half-maximal inhibitory concentration (IC50) was 800 nM in experiment [2], 1300 nM in experiment [3], 1100 nM in experiment [4] and greater than 300000 nM in experiment [5].

A word on the IC50: it is the concentration at which inhibition is half-maximal. A high value points to a need for much substance.
